To fix the notation:
T1: GST-RAB11a (1-173, Q70L mutant) (UniProt P62491 1-173, Q70L)
T1 construct: source: E. coli BL21, purified (glutathione sepharose, Superdex 75 gel filtration)
T1 sequence (looked up): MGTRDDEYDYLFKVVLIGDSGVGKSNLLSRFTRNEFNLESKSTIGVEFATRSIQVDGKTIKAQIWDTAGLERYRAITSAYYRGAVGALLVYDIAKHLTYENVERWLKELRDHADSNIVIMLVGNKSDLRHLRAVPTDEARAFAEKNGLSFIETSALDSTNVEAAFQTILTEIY

T2: GST-RAB25 (1-180) (UniProt P57735 1-180)
T2 construct: RAB25, residues 1-180, in pET41 Ek/LIC; source: E. coli BL21, purified (glutathione sepharose, Superdex 75 gel filtration)
T2 sequence (looked up): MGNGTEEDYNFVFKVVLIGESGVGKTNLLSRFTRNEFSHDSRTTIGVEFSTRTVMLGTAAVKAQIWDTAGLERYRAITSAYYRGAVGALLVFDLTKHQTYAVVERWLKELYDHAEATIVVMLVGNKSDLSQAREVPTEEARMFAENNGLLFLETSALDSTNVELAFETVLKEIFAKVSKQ

B1: FITC-RFP8 (FIP1-derived stapled peptide, 'IME' staple) (peptide)
chain: {FITC-PEG-βAla}-RQVRELEDYIDRLLV[S5]VME[S5]TPNILRIPR
modifications: staple 16-20; reading uncertain
B2: FITC-RFP12 (FIP3-derived stapled peptide, 'IME' staple) (peptide)
chain: {FITC-PEG-βAla}-RINFRLQDYIDRIIV[S5]IME[S5]NPSILEVK
modifications: staple 16-20; reading uncertain
B3: FITC-RFP7 (FIP1-derived stapled peptide, 'IIV' staple) (peptide)
chain: {FITC-PEG-βAla}-RQVRELEDYID[S5]LLV[S5]VMEETPNILRIPR
modifications: staple 12-16; reading uncertain
B4: FITC-RFP6 (FIP1-derived stapled peptide, 'YID' staple) (peptide)
chain: {FITC-PEG-βAla}-RQVRELE[S5]YID[S5]LLVRVMEETPNILRIPR
modifications: staple 8-12; reading uncertain
B5: FITC-RFP4 (unmodified FIP4 RAB-binding domain peptide) (peptide)
peptide: {FITC-PEG}-EQEEINFRLRQYMDKIILAILDHNPSILEIKH
modifications: reading uncertain
notes: also called fRFP4; FIP4 peptide; source: synthetic peptide (Fmoc solid phase, HPLC purified)
B6: FITC-RFP11 (FIP3-derived stapled peptide, 'IIV' staple) (peptide)
chain: {FITC-PEG-βAla}-RINFRLQDYID[S5]IIV[S5]IMETNPSILEVK
modifications: staple 12-16; reading uncertain
B7: FITC-RFP9 (FIP1-derived stapled peptide, 'IDR' staple) (peptide)
chain: {FITC-PEG-βAla}-RQVRELED[S5]IDR[S5]LVRVMEETPNILRIPR
modifications: staple 9-13; reading uncertain
B8: FITC-RFP2 (unmodified FIP2 RAB-binding domain peptide) (peptide)
peptide: {FITC-PEG}-ERDTHIRELEDYIDNLLVRVMEETPSILRVPR
modifications: reading uncertain
notes: limits worked out from the printed L485, V486 and M489; also called fRFP2; FIP2 peptide; source: synthetic peptide (Fmoc solid phase, HPLC purified)
B9: FITC-RFP10 (FIP3-derived stapled peptide, 'YID' staple) (peptide)
chain: {FITC-PEG-βAla}-RINFRLQ[S5]YID[S5]IIVAIMETNPSILEVK
modifications: staple 8-12; reading uncertain
B10: FITC-RFP13 (FIP3-derived stapled peptide, 'IDR' staple) (peptide)
chain: {FITC-PEG-βAla}-RINFRLQD[S5]IDR[S5]IVAIMETNPSILEVK
modifications: staple 9-13; reading uncertain
B11: FITC-RFP1 (unmodified FIP1 RAB-binding domain peptide) (peptide)
peptide: {FITC-PEG}-KKEFQVRELEDYIDNLLVRVMEETPNILRIPA
modifications: reading uncertain
notes: also called fRFP1; FIP1 peptide; source: synthetic peptide (Fmoc solid phase, HPLC purified)

Bridge positions count the residues as written; N and C are the ends. Square brackets hold non-standard residues; d marks the D form. Ends that are not written are not given here. * marks the point of attachment. FITC = O=C1OC2(c3ccc(O)cc3Oc3cc(O)ccc32)c2ccc(NC(=S)*)cc21; S5 = C=CCCC[C@](C)(N)C(=O)O; PEG = not defined here; βAla = NCCC(=O)O Some results are limits rather than exact numbers.

The target of one experiment is T1, GST-RAB11a (1-173, Q70L mutant). In words: fluorescence polarisation; FITC-peptide 25 nM with threefold dilutions of GST-RAB protein; 20 mM Tris pH 8.0, 150 mM NaCl, 5 mM MgCl2, 2 mM DTT, 10 µM GTP, 2% glycerol; room temperature, 30 min; apparent Kd from a sigmoidal (4-parameter) fit, 95% confidence interval. Conditions: both partners purified. On the technique in general: Polarisation of emitted light reports the rotation of a fluorescent probe.
Consider B1, for which the Kd was 40 nM.
Same read-out and setting: with B2 the figure was 20 nM; with B3, 110 nM; with B4, more than 5000 nM.
With B5, the Kd stood at 930 nM.
Regarding B6, the Kd worked out at 7 nM.
Consider B7, for which the Kd amounted to 2400 nM.
Same read-out and setting: with B8 the figure was more than 5000 nM; with B9, more than 5000 nM; with B10, 80 nM.
On to B11, for which the Kd is more than 5000 nM.

The target of another experiment is T2, GST-RAB25 (1-180). The description is as above. The conditions noted are these: both partners purified.
Turning to B1, the Kd came to 170 nM.
The same measure, in the same setting: with B2 the figure was 30 nM; with B3, 510 nM.
On the same count and under the same terms, with B4 the figure was more than 5000 nM; with B5, 2300 nM.
In the case of B6, the Kd was determined as 50 nM.
Still for that read-out and setting: with B7 the figure was 1200 nM.
With B8, the Kd was more than 5000 nM.
On the same count and under the same terms, with B9 the figure was more than 5000 nM; with B10, 40 nM; with B11, more than 5000 nM.

(Values after publication PMC5610242, “Stapled peptide inhibitors of RAB25 target context-specific phenotypes in cancer” (Nature Communications, 2017).)
